Measured values from the supplement of paper PMC9170038.

How the values were obtained:
MS2 coat protein [1] = assay: apparent KD of MS2 coat protein, switch ON state; designed switch direction (-1 OFF switch, 1 ON switch): -1; higher = weaker reporter binding; settings: FMN input: 0 or 200 uM; Eterna round: R93 (includes R88 designs)
In short: (§1)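 Designed RNA switches were made by on-chip transcription from Illumina sequencing clusters and then titrated with SNAP-549-labelled MS2 coat protein. Twofold steps ran from 0.7 or 1.5 nM to 3 µM, each lasting 0.8–1.5 h early and 10–20 min late, in 100 mM Tris-HCl pH 7.5, 80 mM KCl, 4 mM MgCl2, without or with constant ligand. Apparent KD is the per-design median of normalised cluster binding-curve fits.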

MS2 coat protein [2] = assay: apparent KD of MS2 coat protein, switch OFF state (with FMN for OFF switches, without FMN for ON switches); designed switch direction (-1 OFF switch, 1 ON switch): -1; higher = weaker reporter binding; settings: FMN input: 0 or 200 uM; Eterna round: R93 (includes R88 designs)
In short: as §1

Sequence | apparent KD of MS2 coat protein (MS2 coat protein [1]) [nM] | apparent KD of MS2 coat protein (MS2 coat protein [2]) [nM]
AAAAAGGGAGGAUAUACAUGAGUAGAUCGUGUAAAAAAAAUACAUGAGGAUCACCCAUGUAGAAGGCCCAAAAA [Ecxl-III] | 96.8 | 31.5
AAAAAGGGAGGAUAUGCAAAAAAAAAAAAAAAAAAAAAAAAACAUGAGGAUCACCCAUGUAGAAGGCCCAAAAA [Dora Baggins - Jieux - Exclusion 2] | 32.4 | 34.4
AAAAAGGUAGGAUAUACGAAAAAAAAAGGUGAAAAAAAAAAACAUGAGGAUCACCCAUGUAGAAGGACCAAAAA [Ex 2 sub 1 70% 2] | 39.3 | 76.7
AAAAAGGUAGGAUAUACGAAAAAAAAGGGUAGAAAAAUAAAACAUGAGGAUCACCCAUGUAGAAGGACCAAAAA [Ex 2 sub 1 70% 1] | 25.8 | 86.5
AAAAAGGUAGGAUAUGCUAAAUAACAUGAAGAAUAAAUAAAACAUGAGGAUCACCCAUGUAGAAGGACCAAAAA [Ex 2 Tesla 1] | 25 | 20
AAAAAGUCAGGAUAUACAUGAGGAUCACCCAUGUAAAAAAAAGGGAAAAAAAAAAAGGGUAGAAGGGACGAAAA [Exclusion 3] | 25.3 | 28.8
AAAAAGUCAGGAUAUACGAAAAAAAAAAAAAAAAAAAAAAAGUAGAAGGGACAUGAGGAUCACCCAUGUAAAAA [Exclusion 4] | 88.9 | 27.1
AAAAAGUCAGGAUAUAUGCGAAAAAUAAAAAAAAUAAAAGCAUAGAAGGGACAUGAGGAUCACCCAUGUUAAAA [Ex 4 May 16] | 36.6 | 26.6
AAAAAGUCAGGAUAUCGGAAAAUAAAAAUAAAAAAAAAAAACGAGAAGGGACAUGAGGAUCACCCAUGUAUGAC [Mat - Exclusion 4 - Mayanna - D113] | 45.2 | 39
AAAAAGUCAGGAUAUCGUAGAAAAAUAUAAAUAAGAAAGUACGAGAAGGGACAUGAGGAUCACCCAUGUAAAAA [Ex 4 #1] | 50 | 36.8
AAAAAGUCAGGAUAUGCACAAAAAAAAAUAAAAAAAAAAGUGCAGAAGGGACAUGAGGAUCACCCAUGUAAGAU [Mat - Exclusion 4 - Mayanna - D118] | 81 | 77.2
AAAAAGUCAGGAUAUGCAGACAAAGCAAAAAAGCAAUGUCUGCAGAAGGGACAUGAGGAUCACCCAUGUAAAAA [Ex 4 May 9] | 57.7 | 44.6
AAAAAGUCAGGAUAUGUCAAAGGUCACGAAAGUGACAAAGGACAGAAGGGACAUGAGGAUCACCCAUGUAAAAA [Fiskers Exclusion 4 D1] | 53.5 | 49.5
AAAAAGUGAGGAUAUGCAGUGGCCUGUAGACGCGAGCACUUGUAGAAGGCACAUGAGGAUCACCCAUGUUUAAA [EX4 Malc#29] | 21.3 | 20.5
AAAAAGUGAGGAUAUGCGCUGUCAUGUAGACACGAGCAGUCGUAGAAGGCACAUGAGGAUCACCCAUGUUUAAA [EX4 Malc#24] | 31.9 | 20
AAAAAGUGAGGAUAUGGAAAAAAAAAAAAAAAAAAAAAAAACCAGAAGGCACAUGAGGAUCACCCAUGUAAAAA [exclusive 2] | 38.6 | 30.9
AAAAAGUGAGGAUAUGGAAAAAAAAAAAAAAAAAAAAAAAACCAGAAGGCACAUGAGGAUCACCCAUGUAAAAA [low kcal] | 38.6 | 30.9
AAAAAGUGAGGAUAUGUCAAAGGUCACGAAAGUGACAAAGGACAGAAGGCACAUGAGGAUCACCCAUGUGGGAA [Fiskers Exclusion 4D1 65% - Early + late G segment 1] | 67.4 | 77.6
AAAAAGUGAGGAUAUUCGGAUAGGAAAACGAAAACCUAUCCGAAGAAGGCACAUGAGGAUCACCCAUGUGAAAG [Mat - Exaclusion 4 - Eli mod - D42] | 28 | 29.4
AAAAAUCGAGGAUAUACAUGAGGAUCACCCAUGUUGGAAAACGAUUACACAAAAGAAAGUAGAAGGCGAUAAAA [Ex 3 May 21] | 16.5 | 24.7
AAAAAUGGAGGAUAUACAUGAGGAUCACCCAUGUGUAUAAAAAAAUACACAAAAGAAAGUAGAAGGCCAUAAAA [Ex 3 Ice] | 35 | 94.3
AAAAAUGGAGGAUAUACGUACAUGUCAAAAGACGUGAAGGGACAUGAGGAUCACCCAUGUAGAAGGCUAAAAAA [JL Stem Breaker 7] | 80.1 | 29.5
AAAAAUUGAGGAUAUACGAACAUGUCAAAAGACGUGAAGGGACAUGAGGAUCACCCAUGUAGAAGGCGAAAGAA [JL Loop Breaker 1] | 45.1 | 19.9

Sequence | apparent KD of MS2 coat protein (MS2 coat protein [1]) [nM] | apparent KD of MS2 coat protein (MS2 coat protein [2]) [nM]
AAAACACAUGAGGAUCACCCAUGUUAGGAUAUCCACGCUACUAAUCCUAAACAAAGCGGGAGAAGGAACGUGGC [Xerereonan] | 20.9 | 17.5
AAAACGUGAGGAUAUGCACCAAAAAAGGUAAAUCGGGUACGACAUGAGGAUCACCCAUGUAGAAGGCACGAAAA [Frodo Flailing 11 - Jieux - Exclusion 2] | 28.2 | 42.9
AAAACGUGAGGAUAUGCACCAAAAAAGGUAAUUCGGGUACGACAUGAGGAUCACCCAUGUAGAAGGCACGAAAA [Frodo Flailing 12 - Jieux - Exclusion 2] | 29.9 | 28.7
AAAAGACAUGAGGAUCACCCAUGUAAGGAUAUGCAGAGAGCAAAACAAAAAAAAAAAAGCAGAAGGUACAUAAA [Design2] | 55.4 | 65.1
AAAAGACAUGAGGAUCACCCAUGUGAGGAUAUCGGAAAAGGAAAAAAAAAAAAGAAGACGAGAAGGCACACCAA | 42.5 | 33.8
AAAAGACAUGAGGAUCACCCAUGUGAGGAUAUGCAAAACCCAUAUAAAAAGGGAAAAAGCAGAAGGUACAAAAA [wbt round 1 mod 13] | 29.6 | 40.5
AAAAGCAAAGGAUAUACAUGAGGAUCACCCAUGUAAAAAAGAAAAGAGUAUAUGGCAUGUAGAAGGUUGCGUGG [Rabisoxe] | 26.2 | 54.9
AAAAGUACAGGAUAUACAUGAGGAUCACCCAUGUAGAAAGGAAGUGUAAAAAAAAAGUGUAGAAGGGUGCAUGA [MS2 Riboswitches On Chip Exclusion 3 wbt1] | 22.5 | 21.2
AAACCACAUGAGGAUCACCCAUGUCAGGAUAUGCAAACAACAAACAACAAACAACAAAGCAGAAGGGACAACAA [63%, Olong, 2] | 13.8 | 18
AAACGUACAGGAUAUACGAAAAGAUUACGAAAGUAAUCGGGACAUGAGGAUCACCCAUGUAGAAGGGUACGAAA [Mod2 of Meechl 64% 4] | 48 | 61.7
AAACGUUGAGGAUAUACAGAAGGGUAUAAAUCAAAAAAAACACAUGAGGAUCACCCAUGUAGAAGGCAACGAAA | 98.9 | 50.4
AAAGGACAUGAGGAUCACCCAUGUGAGGAUAUCGGAAAAGGAAAAAUAAAAAAGAAGACGAGAAGGCACACCAA [Mat - Exclusion 1 - Eli mod - D76] | 80.6 | 59.8
AAAGGACGAGGAUAUACAUGAGGAUCACCCAUGUAAAAAACAUAGUAAAAGGGCUUGUGUAGAAGGCGUCCAAA [Meechl Ex3 2 R2 v10] | 173 | 35.6
AAAGGACGAGGAUAUACAUGAGGAUCACCCAUGUAAAAAGCAUAAUAAAAUAACUUAUGUAGAAGGCGUCCAAA [Mat - Exclusion 3 - Eli mod - D91] | 22 | 102
AAAGGACUAGGAUAUACAUGAGGAUCACCCAUGUAAAAAACAUAAUAAAAGAACUUAUGUAGAAGGAGUCCAAA [69%, Moding Meechl, 9] | 31.7 | 93.7
AAAGGGCGAGGAUAUACAUGAGGAUCACCCAUGUAAAAAACAUAAUAAAAGAACUUAUGUAGAAGGCGUCCAAA [Meechl Ex3 2 R2 v2] | 52.8 | 321
AAAGUGUGAGGAUAUGUCAAAGGACACGAAAGUGACAAAGGACAGAAGGUACAUGAGGAUCACCCAUGUAAAAA [milkweed 18] | 27.3 | 20.6
AAAUACUAAGGAUAUACAUGAGGAUCACCCAUGUACAAACCCGUGGAACGGAUCGUUAGUAGAAGGUGGACAAA [Zaanrion] | 15.6 | 15.4
AAAUCAGUAGGAUAUACGAUUUUAUGCUAGAUAGAGGAACCACAUGAGGAUCACCCAUGUAGAAGGACUAGAUA [EX2 Malc#24] | 14.5 | 16.4
AAAUGAUGAGGAUAUACAUGAGGAUCACCCAUGUGUAAAAAUAAAUACACAAAAGAAAGUAGAAGGCAUCAAAG [Mat - Exclusion 3 - Mayanna mod - D119] | 27.8 | 88.6
AAAUGCUGAGGAUAUACAUGAGGAUCACCCAUGUAAAAUAAAUAAAGGGUGUAAACGUGUAGAAGGCAGCAUAA [Exclusion 3.14e (FMN+ favored )] | 39.4 | 32.6
AACAAACAUGAGGAUCACCCAUGUCAGGAUAUCCGAAAUAAAGAAACAAUAAUAAUAAGGAGAAGGGACUAAAU [Ex1 sub 2] | 35.5 | 34.1
